Tests used:
[1] = molecular target: T1, D. melanogaster Par-6 PDZ domain (residues 156-255) (D. melanogaster, UniProt O97111 156-255); assay: fluorescence polarisation
T1 sequence (looked up): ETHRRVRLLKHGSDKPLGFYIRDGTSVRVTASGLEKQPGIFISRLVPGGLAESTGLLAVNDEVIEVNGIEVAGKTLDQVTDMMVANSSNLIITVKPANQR

TMR-CGYPKHREMAVDSP = molecular target: T2, TMR-CGYPKHREMAVDSP (Drosophila); assay: fluorescence polarisation
T2 peptide: Ac-C(TMR)GYPKHREMAVDSP-NH2

Ac-C(TMR)GYPKHREMAAD-NH2 [TMR-CGYPKHREMAAD] was tested, and the Kd [1] was 15 µM.

B1: PDZ-PxxP-COOH synthetic regulatory system without decoy ([Par-6 156-255]-PPPALPPKHREMAAD) (other, D. melanogaster)
chain: ETHRRVRLLKHGSDKPLGFYIRDGTSVRVTASGLEKQPGIFISRLVPGGLAESTGLLAVNDEVIEVNGIEVAGKTLDQVTDMMVANSSNLIITVKPANQRLPPPALPPKHREMAAD
B1 gave a Kd (TMR-CGYPKHREMAVDSP) of 48 µM.
